Test results from article PMC10786891, “Massively parallel profiling of RNA-targeting CRISPR-Cas13d”.

T1: EsCas13d, nuclease-dead (Eubacterium siraeum, UniProt B0MS50, R295A;H300A;R849A;H854A)
T1 sequence: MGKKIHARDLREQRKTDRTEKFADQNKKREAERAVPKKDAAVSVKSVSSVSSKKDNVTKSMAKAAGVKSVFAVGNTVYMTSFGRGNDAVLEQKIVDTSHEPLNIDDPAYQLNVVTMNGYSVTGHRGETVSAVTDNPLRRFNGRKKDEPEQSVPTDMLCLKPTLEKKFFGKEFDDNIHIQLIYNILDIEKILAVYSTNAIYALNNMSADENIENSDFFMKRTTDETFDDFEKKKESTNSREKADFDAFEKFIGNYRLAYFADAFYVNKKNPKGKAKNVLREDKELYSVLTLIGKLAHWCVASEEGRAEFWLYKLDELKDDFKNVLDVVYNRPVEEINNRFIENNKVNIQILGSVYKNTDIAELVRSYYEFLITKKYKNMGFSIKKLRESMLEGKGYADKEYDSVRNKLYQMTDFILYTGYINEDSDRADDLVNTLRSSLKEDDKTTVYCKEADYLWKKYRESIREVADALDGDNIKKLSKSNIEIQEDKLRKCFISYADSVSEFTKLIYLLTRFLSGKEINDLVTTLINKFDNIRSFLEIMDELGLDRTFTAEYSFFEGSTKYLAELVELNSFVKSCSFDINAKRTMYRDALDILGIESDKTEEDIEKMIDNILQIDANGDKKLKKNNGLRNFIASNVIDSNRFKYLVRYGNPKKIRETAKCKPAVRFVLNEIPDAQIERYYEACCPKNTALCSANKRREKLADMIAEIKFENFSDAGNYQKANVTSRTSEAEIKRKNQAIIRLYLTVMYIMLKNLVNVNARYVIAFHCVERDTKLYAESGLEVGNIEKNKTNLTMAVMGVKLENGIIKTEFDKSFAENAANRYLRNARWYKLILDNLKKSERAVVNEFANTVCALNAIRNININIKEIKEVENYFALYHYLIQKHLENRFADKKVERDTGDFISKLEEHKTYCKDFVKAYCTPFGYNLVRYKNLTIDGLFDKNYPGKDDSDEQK

B1: target 1 insU 3' of 21,insA 3' of 2 (mixed)
RNA 1: CACCCGUGCAAAAAUGCAGGGGUCUAAAACUGAGCGGAUAACCUCUCUAUGG
RNA 2: GGGAAUGGAUCCACAUCUACGAAUUCGUACCUAUAGAGAGGUUAUCCGCUCAACCGAGAUCGGAAGAGCACACGU
B2: target 1 C6A,C7G (mixed)
RNA 1: CACCCGUGCAAAAAUGCAGGGGUCUAAAACUGAGCGGAUAACCUCUCUAUGG
RNA 2: GGGAAUGGAUCCACAUCUACGAAUUCGUACCAUAGAGAGGUUAUGAGCUCACCGAGAUCGGAAGAGCACACGU
B3: target 1 C2G,A14C (mixed)
RNA 1: CACCCGUGCAAAAAUGCAGGGGUCUAAAACUGAGCGGAUAACCUCUCUAUGG
RNA 2: GGGAAUGGAUCCACAUCUACGAAUUCGUACCAUAGAGCGGUUAUCCGCUGACCGAGAUCGGAAGAGCACACGU
B4: target 3 insA 3' of 21,insC 3' of 20 (mixed)
RNA 1: CACCCGUGCAAAAUUGCAGGGGUCUAAAACGACCUGAAUAUUUCAGAUCAAA
RNA 2: GGGAAUGGAUCCACAUCUACGAAUUCGUUUUAUCGAUCUGAAAUAUUCAGGUCUGCAGAUCGGAAGAGCACACGU
B5: target 3 U7A,A9G (mixed)
RNA 1: CACCCGUGCAAAAUUGCAGGGGUCUAAAACGACCUGAAUAUUUCAGAUCAAA
RNA 2: GGGAAUGGAUCCACAUCUACGAAUUCGUUUUUGAUCUGAAAUGUACAGGUCUGCAGAUCGGAAGAGCACACGU
B6: target 3 G3C,C6U (mixed)
RNA 1: CACCCGUGCAAAAUUGCAGGGGUCUAAAACGACCUGAAUAUUUCAGAUCAAA
RNA 2: GGGAAUGGAUCCACAUCUACGAAUUCGUUUUUGAUCUGAAAUAUUUAGCUCUGCAGAUCGGAAGAGCACACGU
B7: target 3 A11G (mixed)
RNA 1: CACCCGUGCAAAAUUGCAGGGGUCUAAAACGACCUGAAUAUUUCAGAUCAAA
RNA 2: GGGAAUGGAUCCACAUCUACGAAUUCGUUUUUGAUCUGAAGUAUUCAGGUCUGCAGAUCGGAAGAGCACACGU
B8: target 3 insU 3' of 6,insA 3' of 4 (mixed)
RNA 1: CACCCGUGCAAAAUUGCAGGGGUCUAAAACGACCUGAAUAUUUCAGAUCAAA
RNA 2: GGGAAUGGAUCCACAUCUACGAAUUCGUUUUUGAUCUGAAAUAUUCUAGAGUCUGCAGAUCGGAAGAGCACACGU
B9: target 3 G4C,U20C (mixed)
RNA 1: CACCCGUGCAAAAUUGCAGGGGUCUAAAACGACCUGAAUAUUUCAGAUCAAA
RNA 2: GGGAAUGGAUCCACAUCUACGAAUUCGUUUUCGAUCUGAAAUAUUCACGUCUGCAGAUCGGAAGAGCACACGU
B10: target 3 A5G,U22A (mixed)
RNA 1: CACCCGUGCAAAAUUGCAGGGGUCUAAAACGACCUGAAUAUUUCAGAUCAAA
RNA 2: GGGAAUGGAUCCACAUCUACGAAUUCGUUAUUGAUCUGAAAUAUUCGGGUCUGCAGAUCGGAAGAGCACACGU
B11: target 3 insA 3' of 19,insU 3' of 1 (mixed)
RNA 1: CACCCGUGCAAAAUUGCAGGGGUCUAAAACGACCUGAAUAUUUCAGAUCAAA
RNA 2: GGGAAUGGAUCCACAUCUACGAAUUCGUUUUUGAAUCUGAAAUAUUCAGGUCUUGCAGAUCGGAAGAGCACACGU
B12: target 3 insC 3' of 8,insU 3' of 4 (mixed)
RNA 1: CACCCGUGCAAAAUUGCAGGGGUCUAAAACGACCUGAAUAUUUCAGAUCAAA
RNA 2: GGGAAUGGAUCCACAUCUACGAAUUCGUUUUUGAUCUGAAAUAUCUCAGUGUCUGCAGAUCGGAAGAGCACACGU
B13: target 3 insA 3' of 16,insA 3' of 2 (mixed)
RNA 1: CACCCGUGCAAAAUUGCAGGGGUCUAAAACGACCUGAAUAUUUCAGAUCAAA
RNA 2: GGGAAUGGAUCCACAUCUACGAAUUCGUUUUUGAUCAUGAAAUAUUCAGGUACUGCAGAUCGGAAGAGCACACGU
B14: target 3 complement block 6-8 (mixed)
RNA 1: CACCCGUGCAAAAUUGCAGGGGUCUAAAACGACCUGAAUAUUUCAGAUCAAA
RNA 2: GGGAAUGGAUCCACAUCUACGAAUUCGUUUUUGAUCUGAAAUAAAGAGGUCUGCAGAUCGGAAGAGCACACGU
B15: target 3 U2C,G14U (mixed)
RNA 1: CACCCGUGCAAAAUUGCAGGGGUCUAAAACGACCUGAAUAUUUCAGAUCAAA
RNA 2: GGGAAUGGAUCCACAUCUACGAAUUCGUUUUUGAUCUUAAAUAUUCAGGCCUGCAGAUCGGAAGAGCACACGU
B16: target 3 C1G,A9G (mixed)
RNA 1: CACCCGUGCAAAAUUGCAGGGGUCUAAAACGACCUGAAUAUUUCAGAUCAAA
RNA 2: GGGAAUGGAUCCACAUCUACGAAUUCGUUUUUGAUCUGAAAUGUUCAGGUGUGCAGAUCGGAAGAGCACACGU
B17: target 3 insU 3' of 4,insA 3' of 2 (mixed)
RNA 1: CACCCGUGCAAAAUUGCAGGGGUCUAAAACGACCUGAAUAUUUCAGAUCAAA
RNA 2: GGGAAUGGAUCCACAUCUACGAAUUCGUUUUUGAUCUGAAAUAUUCAGUGUACUGCAGAUCGGAAGAGCACACGU
B18: target 3 insA 3' of 3,insU 3' of 3 (mixed)
RNA 1: CACCCGUGCAAAAUUGCAGGGGUCUAAAACGACCUGAAUAUUUCAGAUCAAA
RNA 2: GGGAAUGGAUCCACAUCUACGAAUUCGUUUUUGAUCUGAAAUAUUCAGGAUUCUGCAGAUCGGAAGAGCACACGU
B19: target 3 insC 3' of 13,insU 3' of 3 (mixed)
RNA 1: CACCCGUGCAAAAUUGCAGGGGUCUAAAACGACCUGAAUAUUUCAGAUCAAA
RNA 2: GGGAAUGGAUCCACAUCUACGAAUUCGUUUUUGAUCUGACAAUAUUCAGGUUCUGCAGAUCGGAAGAGCACACGU
B20: target 3 insA 3' of 14,insA 3' of 6 (mixed)
RNA 1: CACCCGUGCAAAAUUGCAGGGGUCUAAAACGACCUGAAUAUUUCAGAUCAAA
RNA 2: GGGAAUGGAUCCACAUCUACGAAUUCGUUUUUGAUCUGAAAAUAUUCAAGGUCUGCAGAUCGGAAGAGCACACGU
B21: target 3 insA 3' of 21,insU 3' of 5 (mixed)
RNA 1: CACCCGUGCAAAAUUGCAGGGGUCUAAAACGACCUGAAUAUUUCAGAUCAAA
RNA 2: GGGAAUGGAUCCACAUCUACGAAUUCGUUUUAUGAUCUGAAAUAUUCAUGGUCUGCAGAUCGGAAGAGCACACGU
B22: target 3 G4C,A11G (mixed)
RNA 1: CACCCGUGCAAAAUUGCAGGGGUCUAAAACGACCUGAAUAUUUCAGAUCAAA
RNA 2: GGGAAUGGAUCCACAUCUACGAAUUCGUUUUUGAUCUGAAGUAUUCACGUCUGCAGAUCGGAAGAGCACACGU
B23: target 3 G4C,U22C (mixed)
RNA 1: CACCCGUGCAAAAUUGCAGGGGUCUAAAACGACCUGAAUAUUUCAGAUCAAA
RNA 2: GGGAAUGGAUCCACAUCUACGAAUUCGUUCUUGAUCUGAAAUAUUCACGUCUGCAGAUCGGAAGAGCACACGU
B24: target 3 insC 3' of 9,insC 3' of 5 (mixed)
RNA 1: CACCCGUGCAAAAUUGCAGGGGUCUAAAACGACCUGAAUAUUUCAGAUCAAA
RNA 2: GGGAAUGGAUCCACAUCUACGAAUUCGUUUUUGAUCUGAAAUACUUCACGGUCUGCAGAUCGGAAGAGCACACGU
B25: target 3 G4U,U22A (mixed)
RNA 1: CACCCGUGCAAAAUUGCAGGGGUCUAAAACGACCUGAAUAUUUCAGAUCAAA
RNA 2: GGGAAUGGAUCCACAUCUACGAAUUCGUUAUUGAUCUGAAAUAUUCAUGUCUGCAGAUCGGAAGAGCACACGU
B26: target 3 insU 3' of 22,insG 3' of 8 (mixed)
RNA 1: CACCCGUGCAAAAUUGCAGGGGUCUAAAACGACCUGAAUAUUUCAGAUCAAA
RNA 2: GGGAAUGGAUCCACAUCUACGAAUUCGUUUUUUGAUCUGAAAUAUGUCAGGUCUGCAGAUCGGAAGAGCACACGU
B27: target 3 del4,del6 (mixed)
RNA 1: CACCCGUGCAAAAUUGCAGGGGUCUAAAACGACCUGAAUAUUUCAGAUCAAA
RNA 2: GGGAAUGGAUCCACAUCUACGAAUUCGUUUUUGAUCUGAAAUAUUAGUCUGCAGAUCGGAAGAGCACACGU
B28: target 3 insA 3' of 8,insG 3' of 8 (mixed)
RNA 1: CACCCGUGCAAAAUUGCAGGGGUCUAAAACGACCUGAAUAUUUCAGAUCAAA
RNA 2: GGGAAUGGAUCCACAUCUACGAAUUCGUUUUUGAUCUGAAAUAUAGUCAGGUCUGCAGAUCGGAAGAGCACACGU

Target: T1, EsCas13d, nuclease-dead
Assay: crRNA (strand 1, pre-loaded); Mg2+; 40 mM Tris-HCl pH 7.5, 150 mM NaCl, 6 mM MgCl2, 1 mM DTT, 0.1% Tween-20, 0.2 mg/ml BSA; 25 C; 10 min per concentration, then washed
Conditions: tags: His6-TwinStrep-SUMO cleaved; N-terminal SNAP kept (SNAP-Surface 488); label: 3' end held by stalled T7 RNA polymerase

Q: B1 was tested. Which Kd did it give?
A: 26.8 ± 2.8 nM

Q: For B2, which Kd is on record?
A: 6.86 ± 0.18 nM

Q: How did the Kd turn out when B3 was run?
A: 44.8 ± 3.3 nM

Q: Which Kd does the source give for B4 here?
A: 73.5 ± 20.5 nM

Q: Which Kd does the source give for B5 here?
A: 97 ± 17.5 nM

Q: With B6 as the binder, how does the Kd read?
A: 13.1 ± 0.95 nM

Q: Which Kd does the source give for B7 here?
A: 57 ± 11.5 nM

Q: For B8, which Kd is on record?
A: 19.4 ± 3.6 nM

Q: How did the Kd turn out when B9 was run?
A: 57 ± 12 nM

Q: With B10 as the binder, how does the Kd read?
A: 21.6 ± 2.85 nM

Q: How did the Kd turn out when B11 was run?
A: 68 ± 21 nM

Q: How did the Kd turn out when B12 was run?
A: 105 ± 42 nM

Q: For B13, which Kd is on record?
A: 84.5 ± 25.5 nM

Q: For B14, which Kd is on record?
A: 102 ± 23.5 nM

Q: With B15 as the binder, how does the Kd read?
A: 82 ± 34 nM

Q: How did the Kd turn out when B16 was run?
A: 33.5 ± 8.5 nM

Q: For B17, which Kd is on record?
A: 4.65 ± 0.75 nM

Q: With B18 as the binder, how does the Kd read?
A: 27.9 ± 2.9 nM

Q: Which Kd does the source give for B19 here?
A: 32.5 ± 8 nM

Q: How did the Kd turn out when B20 was run?
A: 90.5 ± 25 nM

Q: How did the Kd turn out when B21 was run?
A: 44 ± 4.65 nM

Q: Which Kd does the source give for B22 here?
A: 54.5 ± 18.5 nM

Q: How did the Kd turn out when B23 was run?
A: 13 ± 2.15 nM

Q: With B24 as the binder, how does the Kd read?
A: 99 ± 21 nM

Q: For B25, which Kd is on record?
A: 4.45 ± 0.435 nM

Q: With B26 as the binder, how does the Kd read?
A: 50.5 ± 11.5 nM

Q: B27 was tested. Which Kd did it give?
A: 19 ± 3.25 nM

Q: How did the Kd turn out when B28 was run?
A: 53.5 ± 8.5 nM
